In article PMC3851519 (Developmental cell, 2013):

Columns and labels:
T7-SOCS7 WT = molecular target: T1, T7-SOCS7 WT (UniProt Q8VHQ2 1-579); experiment: pull-down
T1 sequence (looked up): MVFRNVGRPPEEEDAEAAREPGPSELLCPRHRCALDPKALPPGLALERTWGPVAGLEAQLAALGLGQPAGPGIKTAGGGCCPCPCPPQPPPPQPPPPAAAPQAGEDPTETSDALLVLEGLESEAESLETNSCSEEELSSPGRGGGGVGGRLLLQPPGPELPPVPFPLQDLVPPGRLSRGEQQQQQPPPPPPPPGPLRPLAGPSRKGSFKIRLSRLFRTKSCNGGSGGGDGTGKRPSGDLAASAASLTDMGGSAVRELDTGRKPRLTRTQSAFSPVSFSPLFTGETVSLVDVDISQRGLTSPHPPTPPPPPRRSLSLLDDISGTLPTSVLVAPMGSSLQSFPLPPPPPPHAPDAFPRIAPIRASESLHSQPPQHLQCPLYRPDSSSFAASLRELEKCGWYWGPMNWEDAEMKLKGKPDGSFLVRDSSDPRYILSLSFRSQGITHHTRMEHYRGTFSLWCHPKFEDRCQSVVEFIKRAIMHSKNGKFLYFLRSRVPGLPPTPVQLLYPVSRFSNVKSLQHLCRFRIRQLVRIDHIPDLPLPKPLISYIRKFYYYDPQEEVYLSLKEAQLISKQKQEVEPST

T7-SOCS6 = molecular target: T2, T7-SOCS6 (UniProt Q9JLY0 1-533); experiment: pull-down
T2 sequence (looked up): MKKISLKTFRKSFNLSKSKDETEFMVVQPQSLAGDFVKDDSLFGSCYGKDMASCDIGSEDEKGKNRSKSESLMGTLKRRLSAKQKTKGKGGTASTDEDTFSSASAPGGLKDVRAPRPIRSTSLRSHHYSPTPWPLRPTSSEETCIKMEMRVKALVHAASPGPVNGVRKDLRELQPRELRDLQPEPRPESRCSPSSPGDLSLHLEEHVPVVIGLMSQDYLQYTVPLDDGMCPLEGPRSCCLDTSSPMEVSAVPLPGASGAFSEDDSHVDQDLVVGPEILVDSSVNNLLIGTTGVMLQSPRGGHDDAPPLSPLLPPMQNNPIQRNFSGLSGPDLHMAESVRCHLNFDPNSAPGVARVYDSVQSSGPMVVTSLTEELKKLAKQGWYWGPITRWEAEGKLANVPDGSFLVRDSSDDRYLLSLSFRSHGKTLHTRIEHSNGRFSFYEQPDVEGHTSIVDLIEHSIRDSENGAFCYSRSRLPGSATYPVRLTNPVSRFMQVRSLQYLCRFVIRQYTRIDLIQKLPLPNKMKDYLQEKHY

B1: tyrosine-phosphorylated Dab1-EGFP (natural protein, UniProt P97318 1-588, looked up)
chain: MSTETELQVAVKTSAKKDSRKKGQDRSEATLIKRFKGEGVRYKAKLIGIDEVSAARGDKLCQDSMMKLKGVVAGARSKGEHKQKIFLTISFGGIKIFDEKTGALQHHHAVHEISYIAKDITDHRAFGYVCGKEGNHRFVAIKTAQAAEPVILDLRDLFQLIYELKQREELEKKAQKDKQCEQAVYQTILEEDVEDPVYQYIVFEAGHEPIRDPETEENIYQVPTSQKKEGVYDVPKSQPNSQPLEDFESRFAAATPNRNLSMDFDELLEATKVSAVTQLELFGDMSTPPDITSPPTPATPGDAFLPSSSQTLPGSADVFGSMSFGTAAVPSGYVAMGAVLPSFWGQQPLVQQQIAMGAQPPVAQVIPGAQPIAWGQPGLFPATQQAWPTVAGQFPPAAFMPTQTVMPLAAAMFQGPLTPLATVPGTNDSARSSPQSDKPRQKMGKESFKDFQMVQPPPVPSRKPDQPSLTCTSEAFSSYFNKVGVAQDTDDCDDFDISQLNLTPVTSTTPSTNSPPTPAPRQSSPSKSSASHVSDPTADDIFEEGFESPSKSEEQEAPDGSQASSTSDPFGEPSGEPSGDNISPQDGS
modifications: phosphotyrosine (sites not given; phosphorylated by co-transfected Fyn)
fold pY.Dab1 bound against SOCS4, 5 or CISH (T7-SOCS7 WT): ~10 fold | fold pY.Dab1 bound against SOCS4, 5 or CISH (T7-SOCS6): ~10 fold
